T1: Lsb3, P43603
T1 sequence (P43603 385-451, looked up): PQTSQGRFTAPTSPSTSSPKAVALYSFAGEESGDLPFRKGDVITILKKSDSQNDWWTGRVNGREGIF

T2: Hse1, P38753
T2 sequence (P38753 208-285, looked up): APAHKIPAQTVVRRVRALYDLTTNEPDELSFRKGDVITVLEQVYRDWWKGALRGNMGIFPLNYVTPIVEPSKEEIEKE

T3: Fus1, P11710
T3 sequence (P11710 432-512, looked up): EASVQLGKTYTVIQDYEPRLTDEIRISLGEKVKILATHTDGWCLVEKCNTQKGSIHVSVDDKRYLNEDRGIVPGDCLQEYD

T4: Sla1-3, P32790
T4 sequence (P32790 344-424, looked up): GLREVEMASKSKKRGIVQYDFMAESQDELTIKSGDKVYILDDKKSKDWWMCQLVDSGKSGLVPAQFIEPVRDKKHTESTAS

T5: Pin3, Q06449
T5 sequence (Q06449 53-122, looked up): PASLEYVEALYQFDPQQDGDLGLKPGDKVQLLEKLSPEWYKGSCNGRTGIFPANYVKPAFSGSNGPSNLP

T6: Cdc25, P04821
T6 sequence (P04821 50-136, looked up): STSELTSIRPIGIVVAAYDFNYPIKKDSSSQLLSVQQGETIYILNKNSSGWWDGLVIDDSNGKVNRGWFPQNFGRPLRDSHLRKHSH

T7: Sla1-2, P32790
T7 sequence (P32790 60-140, looked up): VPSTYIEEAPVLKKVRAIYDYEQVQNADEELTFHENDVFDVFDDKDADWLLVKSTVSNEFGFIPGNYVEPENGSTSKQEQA

T8: Nbp2, Q12163
T8 sequence (Q12163 103-180, looked up): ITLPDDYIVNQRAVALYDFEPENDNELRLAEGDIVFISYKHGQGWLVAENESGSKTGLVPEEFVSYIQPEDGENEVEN

T9: Bud14, P27637
T9 sequence (P27637 247-328, looked up): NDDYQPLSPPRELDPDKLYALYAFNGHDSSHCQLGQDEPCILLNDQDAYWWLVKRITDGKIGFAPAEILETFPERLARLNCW

T10: Bzz1-2, P38822
T10 sequence (P38822 568-633, looked up): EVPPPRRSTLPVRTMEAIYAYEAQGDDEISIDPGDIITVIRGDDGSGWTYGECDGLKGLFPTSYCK

T11: Boi2, P39969
T11 sequence (P39969 32-116, looked up): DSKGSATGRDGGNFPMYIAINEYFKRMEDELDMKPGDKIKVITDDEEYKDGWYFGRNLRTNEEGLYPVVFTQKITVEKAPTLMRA

T12: Pex13, P80667
T12 sequence (P80667 295-386, looked up): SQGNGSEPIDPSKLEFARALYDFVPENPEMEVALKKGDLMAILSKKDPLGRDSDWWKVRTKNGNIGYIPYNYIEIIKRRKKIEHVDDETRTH

T13: Cyk3, Q07533
T13 sequence (Q07533 1-83, looked up): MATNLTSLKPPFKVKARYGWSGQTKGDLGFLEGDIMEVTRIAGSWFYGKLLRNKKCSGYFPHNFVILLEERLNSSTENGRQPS

T14: Bbc1, P47068
T14 sequence (P47068 1-78, looked up): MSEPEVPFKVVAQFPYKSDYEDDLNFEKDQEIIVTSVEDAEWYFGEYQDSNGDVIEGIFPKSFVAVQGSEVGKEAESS

T15: Lsb1, P53281
T15 sequence (P53281 45-122, looked up): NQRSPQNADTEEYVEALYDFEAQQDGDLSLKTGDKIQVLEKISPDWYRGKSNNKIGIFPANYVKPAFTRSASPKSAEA

T16: Boi1, P38041
T16 sequence (P38041 1-86, looked up): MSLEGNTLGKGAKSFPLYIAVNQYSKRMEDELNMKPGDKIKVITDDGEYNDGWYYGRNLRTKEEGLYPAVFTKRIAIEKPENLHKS

T17: Myo5, Q04439
T17 sequence (Q04439 1072-1160, looked up): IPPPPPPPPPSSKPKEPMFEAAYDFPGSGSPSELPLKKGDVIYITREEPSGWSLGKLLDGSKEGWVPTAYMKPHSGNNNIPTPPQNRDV

T18: Lsb4, P32793
T18 sequence (P32793 402-468, looked up): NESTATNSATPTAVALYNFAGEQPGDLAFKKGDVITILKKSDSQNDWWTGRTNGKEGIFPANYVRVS

T19: Abp1, P15891
T19 sequence (P15891 535-592, looked up): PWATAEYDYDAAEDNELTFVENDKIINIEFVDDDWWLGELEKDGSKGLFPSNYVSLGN

T20: Bzz1-1, P38822
T20 sequence (P38822 478-572, looked up): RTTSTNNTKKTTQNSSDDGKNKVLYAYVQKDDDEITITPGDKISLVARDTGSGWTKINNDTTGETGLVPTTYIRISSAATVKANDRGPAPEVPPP

T21: Hof1, Q05080
T21 sequence (Q05080 590-669, looked up): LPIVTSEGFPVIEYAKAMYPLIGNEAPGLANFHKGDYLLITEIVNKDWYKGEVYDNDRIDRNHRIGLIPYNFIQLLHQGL


target: T1, Lsb3, P43603; assay: SPOT array; settings: median of control spots 406

| SPOT intensity | Binder |
| --- | --- |
| 21 | PSTMDFPKLPSFQNS |
| 25 | NSMRPPLLIPAATTK |
| 60 | QTMRQAPKRPDADVA |

target: T2, Hse1, P38753; assay: SPOT array; settings: median of control spots 1727

| SPOT intensity | Binder |
| --- | --- |
| 0 | PSTMDFPKLPSFQNS |
| 5 | NSMRPPLLIPAATTK |
| 1 | QTMRQAPKRPDADVA |

target: T3, Fus1, P11710; assay: SPOT array; settings: median of control spots 1200

| SPOT intensity | Binder |
| --- | --- |
| 0 | PSTMDFPKLPSFQNS |
| 0 | NSMRPPLLIPAATTK |
| 0 | QTMRQAPKRPDADVA |

target: T4, Sla1-3, P32790; assay: SPOT array; settings: median of control spots 5475

| SPOT intensity | Binder |
| --- | --- |
| 0 | PSTMDFPKLPSFQNS |
| 0 | NSMRPPLLIPAATTK |
| 42 | QTMRQAPKRPDADVA |

target: T5, Pin3, Q06449; assay: SPOT array; settings: median of control spots 2171

| SPOT intensity | Binder |
| --- | --- |
| 54 | PSTMDFPKLPSFQNS |
| 40 | NSMRPPLLIPAATTK |
| 61 | QTMRQAPKRPDADVA |

target: T6, Cdc25, P04821; assay: SPOT array; settings: median of control spots 969

| SPOT intensity | Binder |
| --- | --- |
| 0 | PSTMDFPKLPSFQNS |
| 37 | NSMRPPLLIPAATTK |
| 0 | QTMRQAPKRPDADVA |

target: T7, Sla1-2, P32790; assay: SPOT array; settings: median of control spots 712

| SPOT intensity | Binder |
| --- | --- |
| 7 | PSTMDFPKLPSFQNS |
| 6 | NSMRPPLLIPAATTK |
| 19 | QTMRQAPKRPDADVA |

target: T8, Nbp2, Q12163; assay: SPOT array; settings: median of control spots 357

| SPOT intensity | Binder |
| --- | --- |
| 57 | PSTMDFPKLPSFQNS |
| 9 | NSMRPPLLIPAATTK |
| 989 | QTMRQAPKRPDADVA |

target: T9, Bud14, P27637; assay: SPOT array; settings: median of control spots 956

| SPOT intensity | Binder |
| --- | --- |
| 1 | PSTMDFPKLPSFQNS |
| 13 | NSMRPPLLIPAATTK |
| 0 | QTMRQAPKRPDADVA |

target: T10, Bzz1-2, P38822; assay: SPOT array; settings: median of control spots 4538

| SPOT intensity | Binder |
| --- | --- |
| 0 | PSTMDFPKLPSFQNS |
| 0 | NSMRPPLLIPAATTK |
| 28 | QTMRQAPKRPDADVA |

target: T11, Boi2, P39969; assay: SPOT array; settings: median of control spots 1161

| SPOT intensity | Binder |
| --- | --- |
| 0 | PSTMDFPKLPSFQNS |
| 0 | NSMRPPLLIPAATTK |
| 0 | QTMRQAPKRPDADVA |

target: T12, Pex13, P80667; assay: SPOT array; settings: median of control spots 1341

| SPOT intensity | Binder |
| --- | --- |
| 35 | PSTMDFPKLPSFQNS |
| 47 | NSMRPPLLIPAATTK |
| 73 | QTMRQAPKRPDADVA |

target: Bem1-1, P29366; assay: SPOT array; settings: median of control spots 4282
Sequence (P29366 55-141): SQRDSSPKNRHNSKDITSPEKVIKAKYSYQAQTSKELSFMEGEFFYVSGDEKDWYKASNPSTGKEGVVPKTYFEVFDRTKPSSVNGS

| SPOT intensity | Binder |
| --- | --- |
| 0 | PSTMDFPKLPSFQNS |
| 5 | NSMRPPLLIPAATTK |
| 1 | QTMRQAPKRPDADVA |

target: T13, Cyk3, Q07533; assay: SPOT array; settings: median of control spots 1451

| SPOT intensity | Binder |
| --- | --- |
| 2 | PSTMDFPKLPSFQNS |
| 0 | NSMRPPLLIPAATTK |
| 0 | QTMRQAPKRPDADVA |

target: Bem1-2, P29366; assay: SPOT array; settings: median of control spots 4347
Sequence (P29366 139-227): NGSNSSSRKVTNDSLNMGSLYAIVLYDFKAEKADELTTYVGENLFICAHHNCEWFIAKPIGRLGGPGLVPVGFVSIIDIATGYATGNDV

| SPOT intensity | Binder |
| --- | --- |
| 8 | PSTMDFPKLPSFQNS |
| 6 | NSMRPPLLIPAATTK |
| 65 | QTMRQAPKRPDADVA |

target: T14, Bbc1, P47068; assay: SPOT array; settings: median of control spots 796

| SPOT intensity | Binder |
| --- | --- |
| 0 | PSTMDFPKLPSFQNS |
| 0 | NSMRPPLLIPAATTK |
| 90 | QTMRQAPKRPDADVA |

target: Rvs167, P39743; assay: SPOT array; settings: median of control spots 2707
Sequence (P39743 419-482): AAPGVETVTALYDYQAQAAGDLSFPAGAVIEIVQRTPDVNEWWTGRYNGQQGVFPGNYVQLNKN

| SPOT intensity | Binder |
| --- | --- |
| 2 | PSTMDFPKLPSFQNS |
| 0 | NSMRPPLLIPAATTK |
| 10 | QTMRQAPKRPDADVA |

target: Sho1, P40073; assay: SPOT array; settings: median of control spots 1148
Sequence (P40073 287-367): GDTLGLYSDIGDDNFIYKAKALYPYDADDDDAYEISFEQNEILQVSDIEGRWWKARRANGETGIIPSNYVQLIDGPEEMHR

| SPOT intensity | Binder |
| --- | --- |
| 25 | PSTMDFPKLPSFQNS |
| 39 | NSMRPPLLIPAATTK |
| 21 | QTMRQAPKRPDADVA |

target: T15, Lsb1, P53281; assay: SPOT array; settings: median of control spots 388

| SPOT intensity | Binder |
| --- | --- |
| 44 | PSTMDFPKLPSFQNS |
| 387 | NSMRPPLLIPAATTK |
| 211 | QTMRQAPKRPDADVA |

target: T16, Boi1, P38041; assay: SPOT array; settings: median of control spots 1162

| SPOT intensity | Binder |
| --- | --- |
| 0 | PSTMDFPKLPSFQNS |
| 0 | NSMRPPLLIPAATTK |
| 0 | QTMRQAPKRPDADVA |

target: GST; assay: SPOT array; settings: median of control spots 978

| SPOT intensity | Binder |
| --- | --- |
| 0 | PSTMDFPKLPSFQNS |
| 1 | NSMRPPLLIPAATTK |
| 1 | QTMRQAPKRPDADVA |

target: Myo3, P36006; assay: SPOT array; settings: median of control spots 468

| SPOT intensity | Binder |
| --- | --- |
| 51 | PSTMDFPKLPSFQNS |
| 40 | NSMRPPLLIPAATTK |
| 44 | QTMRQAPKRPDADVA |

target: T17, Myo5, Q04439; assay: SPOT array; settings: median of control spots 471

| SPOT intensity | Binder |
| --- | --- |
| 77 | PSTMDFPKLPSFQNS |
| 65 | NSMRPPLLIPAATTK |
| 103 | QTMRQAPKRPDADVA |

target: T18, Lsb4, P32793; assay: SPOT array; settings: median of control spots 397

| SPOT intensity | Binder |
| --- | --- |
| 67 | PSTMDFPKLPSFQNS |
| 87 | NSMRPPLLIPAATTK |
| 115 | QTMRQAPKRPDADVA |

target: T19, Abp1, P15891; assay: SPOT array; settings: median of control spots 935

| SPOT intensity | Binder |
| --- | --- |
| 99 | PSTMDFPKLPSFQNS |
| 87 | NSMRPPLLIPAATTK |
| 81 | QTMRQAPKRPDADVA |

target: T20, Bzz1-1, P38822; assay: SPOT array; settings: median of control spots 4446

| SPOT intensity | Binder |
| --- | --- |
| 0 | PSTMDFPKLPSFQNS |
| 0 | NSMRPPLLIPAATTK |
| 0 | QTMRQAPKRPDADVA |

target: T21, Hof1, Q05080; assay: SPOT array; settings: median of control spots 4086

| SPOT intensity | Binder |
| --- | --- |
| 307 | PSTMDFPKLPSFQNS |
| 2 | NSMRPPLLIPAATTK |
| 0 | QTMRQAPKRPDADVA |

From publication PMC2756588
